# Assay results reported in the DeepSol protein solubility set.
# Test: soluble on expression in E. coli; label from the status in PepcDB or PDB records
row,Sequence,soluble on expression in E. coli
1,MNRQLLLDVLPAPAPALNNYIAGPNGQALAAAHALTAGRAIYLWGPAGCGRTHLLRGLSARPEAIYIDAARAAQSLRELAEADSTAPMPRLVAVDDVHRMDDARQAGLFALYNRWRESAATGRAFALAVSGDRAPMSLPLREDLRTRLGWDLVFRLDPLSDADKLAALTAQAAERGLQLAPEVINWMLTHHERDIRKLAALLDALDRYSLATGRPITIPLLRAMLADPHSQATLEHHHHHH,soluble
2,MILKKDDRMYTKKPTIPENVIERAYKGKCTKEDALLLLEGNPFELFELANDLRAIAAGDTVSYVVNRNIYITNKCVGNCGFCAYRTEKGYILSIEEILKKAGDARKAGAVEVCVQGGYTPEADMEFYLEVIESLKAEYPDLCLHALSPMEVNYAAETSGMSVEEALRRLKKSGLDSLTGTSAEILSDRVRKIICPSKISTQQWIDTVTAAHKAGISTNATIMYGHVETLKERLDHVFTIREIQKETGGFTELIPMSFLPYNNPVGEKMLASGKFSSTGLEDLQLIAISRVILHTYVKNIQATWVKLGKKLAQVALQCGANDLGGTLMEDQISTASGGSHGEYVSPAEFEWMIKGAGRVPVQR,not soluble
3,MHEFTDTRDDSTLDEIWLVEHYPVFTQGQAGKAEHILMPGDIPVIQSDRGGQVTYHGPGQQVMYVLLNLKRRKLGVRELVTLLEQTVVNTLAELGIEAHPRADAPGVYVGEKKICSLGLRIRRGCSFHGLALNVNMDLSPFLRINPCGYAGMEMAKISQWKPEATTNNIAPRLLENILALLNNPDFEYITALEHHHHHH,not soluble
4,MGSDKIHHHHHHMEQCNERPKVSVIIPVYNTCNYVQEALESICQQTLEELEIIVIDDGSTDCSRAIVEEIAIKDTRIQVYKQSNQGLSITRNQGLKFSTGEYIYFMDSDDFLEPDALELCYRKCTKEALDFVFFDAETFTIEPNIPESSFDYQRTLDLPEKICSGIDMLKTQLKTYKFKSSVCLNLFHREFICEERLSFYPGILHEDQLFMIQAYLHASKTGFIRRSFFHRRIRTNSIMTKKFTWKNMEGYLTVTNELLRELPIYPKTYHHTIFFFLRQMLDAAVWQAHTLSLPQRIKLFSLCLKYYRPYVTMRTLMVLLLKTSIHPRQ,not soluble
5,MAYDGLFTKKMVESLQFLTTGRVHKINQPDNDTILMVVRQNRQNHQLLLSIHPNFSRLQLTTKKYDNPFNPPMFARVFRKHLEGGIIESIKQIGNDRRIEIDIKSKDEIGDTIYRTVILEIMGKHSNLILVDENRKIIEGFKHLTPNTNHYRTVMPGFNYEAPPTQHKINPYDITGAEVLKYIDFNAGNIAKQLLNQFEGFSPLITNEIVSRRQFMTSSTLPEAFDEVMAETKLPPTPIFHKNHETGKEDFYFIKLNQFNDDTVTYDSLNDLLDRFYDARGERERVKQ,soluble
6,MGSDKIHHHHHHKSTDYELKYSYAKKYFNAKQYSKSATLLDELVTIFKGTAYAEESLYLLAQSYYGQKDYQTASQYFETYYTTYPKGEFTELSRFYSGYGLYLDSPDPRLDQSQTYKAIEQLQLYLEYYPQSERAEEAQNIMFELQEKLAYKELMATRLYFNLGTYMGNNFQSCVITAQNALKNYPYSKYREEFMFLIIRAKYELALVSVEEKLQGRYRDVVDEYYNYMNEYPEGNYVKQVTKFYDYASKRITDAY,not soluble
7,MGSDKIHHHHHHMPALCSTVQTLEKLAKDDVSSLALLGRSVMHDNALTSRILRVANSAIYHKGSTQISTVSRAAIVLGFDAVRNICITAQLLSSLLESKNLAPSVYQRLIKLMAKAFQAAMLTRMMLSDYDDDIQEEAFIACLLFHIGESAFWSIGGEFTETLDSQLTECETSADERSLIRETIGTSFSQLTQSIARHWGLGELLIQAVNYPDDPRPEIRSIFLADKLCDTLSVATPDKNDLEKYINQAANFTGLDETEFTLKMQRCTKATHKLAEAYGAKVLIDYLPDPQRIDKLEPYLPEAELPIFEANLNVQLVKLRELTAFAINKADFNQIMQTVLEGILEGVGVDRCGVLLLSPSRKQLQPRIMLGRDAEEMKRQFIIELGDRKGLFPMAMEHKESLWVDSPCAKKWQEQCRELKVQLPESGFLVAPLLVDNKVIGFYYADRGPSERCFAEVDFQAFIHFSQLANVCFTVSLK,not soluble
8,MLPSKEELLALLSKECELYASIPDSEQQKKRNKKHFINGLMTACRVVGISFEELNTIIEQMPKKPIFKDLDEQLSVPTYVRNRVDIKL,not soluble
9,MSLDFEYVTGEEGLKKAIKRLENSPYLYLDTETTGDRIRLVQIGDEENTYVIDLYEIQDIEPLRKLINERGIVGHNLKFDLKYLYRYGIFPSATFDTMIASYLLGYERHSLNHIVSNLLGYSMDKSYQTSDWGASVLSDAQLKYAANDVIVLRELFPKMRDMLNELDAERGEELLKTRTAKIFDLKSPVAIVEMAFVREVAKLEINGFPVDVEELTNKLKAVERETQKRIQEFYIKYRVDPLSPKQLASLLTKKFKLNLPKTPKGNVSTDDKALTSYQDVEPVKLVLEIRKLKKIADKLKELKEHLKNGRVYPEFKQIGAVTGRMSSAHPNIQNIHRDMRGIFKAEEGNTFVISDFSQIELRIAAEYVKDPLMLDAFKKGKDMHRYTASVVLGKKEEEITKEERQLAKAINFGLIYGISAKGLAEYAKLGYGVEISLEEAQVLRERFFKNFKAFKEWHDRVKKELKEKGEVKGHTLLGRRFSANTFNDAVNYPIQGTGADLLKLAVLLFDANLQKKGIDAKLVNLVHDEIVVECEKEKAEEVKEILEKSMKTAGKIILKEVPVEVESVINERWTKEGHHHHHH,soluble
10,MTPIPFFNHMLITLLTYMNSTAIVSATDKLPYDDHHIVEDVAITLGLAIKTALGDKRGIKRFSHQIIPMDDALVLVSLDISNRGMAFVNLNLKRSEIGGLATENVPHFFQSFAYNSGITLHISQLSGYNTHHIIEASFKALGLALY,soluble
11,AETEKEKQDWIEAVQQSIAETLSDYEVAEKIWFNESNRSCADCKAPDPDWASINLCVVICKKCAGQHRSLGPKDSKVRSLKMDASIWSNELIELFIVIGNKRANDFWAGNLQKDEELHMDSPVEKRKNFITQKYKEGKFRKTLLASLTKEELNKALCAAVVKPDVLETMALLFSGADVMCATGDPVHSTPYLLAKKAGQSLQMEFLYHNKFSDFPQHDIHSEGVLSQESSQSTFLCDFLYQAPSAASKLSSEKKLLEETNKKWCVLEGGFLSYYENDKSTTPNGTININEVICLAIHKEDFYLNTGPIFIFEIYLPSERVFLFGAETSQAQRKWTEAIAKHFVPLFAENLTEADYDLIGQLFYKDCHALDQWRKGWFAMDKSSLHFCLQMQEVQGDRMHLRRLQELTISTMVQNGEKLDVLLLVEKGRTLYIHGHTKLDFTVWHTAIEKAAGTDGNALQDQQLSKNDVPIIVNSCIAFVTQYGLGCKYIYQKNGDPLHISELLESFKKDARSFKLRAGKHQLEDVTAVLKSFLSDIDDALLTKELYPYWISALDTQDDKERIKKYGAFIRSLPGVNRATLAAIIEHLYRVQKCSEINHMNAHNLALVFSSCLFQTKGQTSEEVNVIEDLINNYVEIFEVKEDQVKQMDIENSFITKWKDTQVSQAGDLLIEVYVERKEPDCSIIIRISPVMEAEELTNDILAIKNIIPTKGDIWATFEVIENEELERPLHYKENVLEQVLRWSSLAEPGSAYLVVKRFLTADTIKHCSDRSTLGSIKEGILKIKEEPSKILSGNKFQDRYFVLRDGFLFLYKDVKSSKHDKMFSLSSMKFYRGVKKKMKPPTSWGLTAYSEKHHWHLCCDSSQTQTEWMTSIFIAQHEYDIWPPAGKERKRSITKNPKIGGLPLIPIQHEGNATLARKNIESARAELERLRLSEKCDKESVDSSLKERASMVAHCLEHKDDKLRNRPRKHRSFNCLEDTEPEAPLGQPKGHKGLKTLRKTEDRNSKATLDSDHKLPSRVIEELNVVLQRSRTLPKELQDEQILK,soluble
12,MMEKPEGLKLIDENGRRIDGRKKYELRPIKMKVGVLKNANGSAYIEWGRNKIIAAVYGPRELHSKHLQRPDRAILRVRYNMAPFSVEERKKPGPDRRSIEISKVIKGALEPALILEMFPRTSIDVFIEVLQADAGTRVAGITAASLALADAGIPMRDLVAACAAGKIEGEIVLDLNKEEDNYGEADVPVAIMPLKNDITLLQMDGYLTKEEFIEAVRLAIKGAKAVYQKQREALKEKYLKIAQEVEESE,soluble
13,NLSVYNVQATNIPPKETLVYTKQTQTT,soluble
14,MSRAVTRSRLNSTTDQFMAEKINESDILERLNQTHTVRGFFITTVDVLTEAIDALMQRIFRKDNFAVKSVVEPLLHDTGPLGDLTVRLKLLFGLGVIPDEVFHDIEHLIKLRNQLNHDATEYQFTDPQILAPIKALNLVKKMGMLHLNVVEPDDDIDLSFYHLQLQRQQQVIKSGLSLAIIQICNALNK,not soluble
15,MGSDKIHHHHHHLYTYLQYIQSSVQTDVGFCVDGAKNLENMYESTKAVGSGPVKRQAGYGASSPSRASGSHPAPSPYDAASTSSSSSSDSCCSCGIGLAGPAGFPGRPGRDGIDGPAGKPGRDGQDLDGESSSDGSQIELDCPAGPPGPPGNPGPQGNSGRPGMDGMPGRNGRCGRPGEQGERGPNGEDGRPGRRGDDGMPGTVNEIPGQAGPPGLRGAPGATGSQGPRGNDGRPGNKGPAGPPGDQGFDGAPGGPGADGEPGAQGPLGAKGECSHCPPPRTAPGY,not soluble
16,SPRPRKRQTGTAGPDRKKLSGKRTKTENSESTSVKLENSSLEMTTTFKNGGKNLSNYWLMKSEPESRLEKGIDMKFSIEDLKAQPKQTACWDGVRNYQARNFLRAMKLEDEAFFYHSNCKQPGIVGLMKIVKEAYPDHTQFEKSNPHYDPSSKEDDPKWSMVDVQFVRMMKRFIPLEELKTYHQAHKATGGPLKSMTLFTRQRLSVQPLTQEEFDFILSLEETEPS,soluble
17,SLLSIIPISAGIPLTETEPKQKWLEEWSKQLFVKVSIDSEYGWGEVLPAAFNSPALYADIVKRLEPSLNGMEISEPGIIWEKLRKLTFSGGYGPVIGAISGVDIALWDLKAKLSKLYLGDIFGKNEQKIARYASLSRYANYEAVIRASKNIVESGFKAIKLHQTKDDTLESVKRFREEIGYGVDLMVDLNCAMNIDEAIKFANSVQRYELKWVEEPIWPPDDLASLKKINDIVPVAAGENFFDFFKFEDAVHLEALTYYQPDVTKVGGLTPTLKILDLLKKNHEQVAFHNRPHNGWIGIFASIAAARMNGVDALIETPPNGVPSQYFRYNAMITSEVIAPNGVGLSIEPIEPLPQPKDEKILIFHD,soluble
18,AIAPTATYAALIHADLDVLWGLLLDKLQSDEQFMPGLERAEIVPLSVAEDPTGVARFRQQHDRRLYFSDGRLVEERVTIDEERKNILLELRNDARYTGYVSTVLLPCPFPEATSGAHVLVRTMDWRAKRSLTDDEIEEGELLATKIRESTLRLKHEVESLRWSLDDSKDPDDE,soluble
19,GYIDTGLYQNKEDILNSPRRLGSTQTKLGDIGYTDVNGDGKIDGEDQVRIGKPTMPHFTYAFDFSLGYEGFTLSGLLYGTGERYMTFGNRYQSGEGKYLYYENQLNYWRPDNTGADFPRISISSGVNGNNNKAGSTFWMRNASYLRLKDLQLSYDFKYKYLKKCDWLQTCRVNLSGSNLFTISGVSKFFDPETSSTSGDGYPVQRVYSIGVTIGF,not soluble
20,MKPIDEFLYVKQNYLTSDTNSLMRLYFPIIGSDAAGLYQYFVSFFDNGEKKHKFSEILNHTQFGMACFENALSVLTAMDLLVFYRQENLYYIKLKAPLNAETFLKNAVYRHLLEQKIGQVAVEHLDLHLPREAQDLSKQFSEVFTAAGQLDLKTPKSKTDFDLDHFKDLMIRDNLQFTDEQTDVIALYILSEKYQLTWYETYLLAKETASNYRISLKRMQAKQEQRDHVDADNSFSKKEQIIIEEAKADKVEVFLAKIKKTRHAAITKDERSLLAELAEMGFLDEVINIMLLYTLDKTNTANINKTYIMKIANDFAFQKIDSAEKAVLKLRSFAERKTKQNQKKIKESSKNNVPEWSNQDYQNNTTADEQARLDEIKRKTLAR,not soluble
